According to patent US20210261643A1, “INHIBITORS OF P-TEFB MEDIATED TRANSCRIPTION” (The Regents of the University of California, priority 2018, published 2021):

Tests used:
[1] = tested on: CEM, MOLT4, and MT4 T cell lines; assay: Cell growth of T cell lines stably expressing HT1 (total viable cell count); type: cell-based; details: C-HT, MO-HT, MT-HT vs CEM, total viable cell count over time
Experimental: Finally, the impact of HT1 on cell growth was assessed using three T cell lines (CEM, MOLT4, and MT4) infected by a lentivirus expressing a triple Flag-epitope tagged HT1 (3f:HT1). Polyclonal population of HT1-expressing cells (C-HT, MO-HT, and MT-HT, respectively) was selected by puromycin and confirmed by BFP expression detected by FACS analysis and WB. […] This confirmed that HT1 was specific to HIV inhibition, and that the few off-target effects had little impact on the metabolism of the cells.

P-TEFb (CycT1) = biological target: T1, P-TEFb (CycT1) (Homo sapiens, UniProt O60563); assay: Co-immunoprecipitation of CycT1 from 293T cell lysates; type: binding
T1 construct: endogenous in cells; host or cells: 293T
Text: We next investigated the mechanisms by which HT1 can prevent HIV gene expression.

[2] = tested on: host cell gene expression in 293T cells; assay: mRNA-seq analysis in 293T cells; type: cell-based
Text: The specificity of HT1 was further investigated by mRNA-seq analysis in 293T cells. Only 48 genes were differentially expressed upon ectopic expression of HT1, while knocking out CycT1 as a control impacted 1673 genes.

[3] = tested on: early steps of HIV infection (HIV-1 NL43ΔenvLuc); assay: Single-round infection with Env-pseudotyped replication-defective HIV, proviral DNA by qPCR; type: cell-based; details: C-HT, MO-HT, MT-HT cells
Text: FIGS. 5A, 5B, 5C, and 5D. Stable expression of HT1 inhibits HIV replication. FIG. 5A. Stable expression of HT1 inhibits HIV-1 replication in C-HT cells. 1E+06 HT1-expressing CEM-HT cells and e control CEM cells were challenged by HIV-1 NL43 infection. FIG. 5B. Stable expression of HT1 inhibits HIV-1 replication in MO-HT cells. 1E+06 HT1-expressing MOLT4-HT cells, and control MOLT4 cells were challenged by HIV-1 NL43 infection. FIG. 5C. Stable expression of HT1 inhibits HIV-1 replication in MT-HT cells. 1E+06 HT1-expressing MT4-HT cells, and control MT4 cells were challenged by HIV-1 NL43 infection. In each of FIGS. 5A, 5B, and 5C, virus production was assessed by Gag p24 ELISA in supernatants when cells were passaged at days 0, 2 and 4, and plotted. Error bars represent standard deviation from triplicate experiments. FIG. 5D: Stable expression of HT1 doesn't inhibit early steps of HIV-1 infection in C-HT, MO-HT, and MT-HT cells. Single-round infection assays were performed in the same conditions as in FIG. 5A-C above, but using replication-defective HXB2 Env-pseudotyped HIV-1 NL43ΔenvLuc. The relative amount of HIV DNA integrated in the cells' genomic DNA was assessed after 24 h by qPCR. […]
(§1) On 2 dpi, virus production was detected from CEM, MOLT4 and MT4 cells and reached around 20 (CEM, MT4) to 110 (MOLT4) ng/mL p24 concentration in the supernatant on 4 dpi.

[4] = tested on: HIV promoter (P-HIV) transactivation by Tat; assay: Luc assay with replication-defective HIV-1 molecular clone pNL43ΔenvLuc in 293T cells; type: cell-based; details: transient expression
7SK snRNA = assay: Binding to endogenous 7SK snRNA
Text: (§2) Finally, since HEXIM1 ARM resembles the TAR-binding domain from Tat, we investigated whether HT1 could bind to HIV TAR. m:HT1 or m:Tat was co-expressed in 293T cells with TAR RNA, expressed under RNA Polymerase III dependent H1 promoter, and immunoprecipitated using anti-Myc Ab or IgG as a control. TAR RNAs co-immunoprecipitated with HT1 or Tat were quantified by RT-qPCR analysis. […] To test whether HT1 affects Tat-TAR interactions, increasing amounts of m:HT1 were also co-expressed with a fixed amount of f:Tat and TAR. […] As expected, HT1 also bound to endogenous 7SK snRNA.

HIV TAR RNA = assay: RNA immunoprecipitation and RT-qPCR with TAR-specific primers in 293T cells; type: binding
Experimental: FIGS. 3A, 3B, 3C and 3D. HT1 prevents Tat from bringing active P-TEFb to TAR. FIG. 3A: HT1 inhibits the kinase activity of P-TEFb subunit CDK9. m:HT1 and/or f:Tat were transiently expressed in 293T cells. Cell lysates were used for IP using anti-Myc Ab (lanes 2-4), or control IgG (lane 1). Immunoprecipitates were incubated with ATP and recombinant GST-CTD proteins for in vitro kinase assay. Six replicate experiments were performed, and mean relative kinase activities are shown in the bar graph to the right. FIG. 3B: HT1 binds to TAR. m:HT1 or m:Tat (or empty vector, EV, as a control) was transiently co-expressed with TAR RNA-expressing pU16TAR in 293T cells. Cell lysates were used for IP using anti-Myc Ab or control IgG. RNA was purified from the immunoprecipitates and submitted to RT-qPCR using TAR-specific primers. Relative TAR enrichment was calculated as qPCR count using anti-Myc Ab minus using IgG, and normalized to EV. Error bars represent standard deviation from triplicate qPCR assays. […] Error bars represent standard deviation from triplicate qPCR assays. FIG. 3D: HT1 competes with Tat for TAR binding. m:HT1 and/or f:Tat were transiently co-expressed with TAR RNA-expressing pU16TAR in 293T cells. Cell lysates were used for IP using anti-Myc Ab or control IgG. RNA was purified from the immunoprecipitates and submitted to RT-qPCR using TAR-specific primers (upper panel). Relative TAR enrichment was calculated as qPCR count using anti-Myc Ab minus using IgG, and normalized to EV. Error bars represent standard deviation from triplicate qPCR assays.
as §2

HIV-1 NL43 = assay: Spreading infection with HIV-1 NL43, Gag p24 ELISA in supernatants; type: cell-based; details: 4 dpi
Text: FIGS. 5A, 5B, 5C, and 5D. Stable expression of HT1 inhibits HIV replication. FIG. 5A. Stable expression of HT1 inhibits HIV-1 replication in C-HT cells. 1E+06 HT1-expressing CEM-HT cells and e control CEM cells were challenged by HIV-1 NL43 infection. FIG. 5B. Stable expression of HT1 inhibits HIV-1 replication in MO-HT cells. 1E+06 HT1-expressing MOLT4-HT cells, and control MOLT4 cells were challenged by HIV-1 NL43 infection. FIG. 5C. Stable expression of HT1 inhibits HIV-1 replication in MT-HT cells. 1E+06 HT1-expressing MT4-HT cells, and control MT4 cells were challenged by HIV-1 NL43 infection. In each of FIGS. 5A, 5B, and 5C, virus production was assessed by Gag p24 ELISA in supernatants when cells were passaged at days 0, 2 and 4, and plotted. Error bars represent standard deviation from triplicate experiments. FIG. 5D: Stable expression of HT1 doesn't inhibit early steps of HIV-1 infection in C-HT, MO-HT, and MT-HT cells. Single-round infection assays were performed in the same conditions as in FIG. 5A-C above, but using replication-defective HXB2 Env-pseudotyped HIV-1 NL43ΔenvLuc. The relative amount of HIV DNA integrated in the cells' genomic DNA was assessed after 24 h by qPCR. Error bars represent standard deviation from triplicate experiments.
as §1

T1 sequence (O60563 whole entry): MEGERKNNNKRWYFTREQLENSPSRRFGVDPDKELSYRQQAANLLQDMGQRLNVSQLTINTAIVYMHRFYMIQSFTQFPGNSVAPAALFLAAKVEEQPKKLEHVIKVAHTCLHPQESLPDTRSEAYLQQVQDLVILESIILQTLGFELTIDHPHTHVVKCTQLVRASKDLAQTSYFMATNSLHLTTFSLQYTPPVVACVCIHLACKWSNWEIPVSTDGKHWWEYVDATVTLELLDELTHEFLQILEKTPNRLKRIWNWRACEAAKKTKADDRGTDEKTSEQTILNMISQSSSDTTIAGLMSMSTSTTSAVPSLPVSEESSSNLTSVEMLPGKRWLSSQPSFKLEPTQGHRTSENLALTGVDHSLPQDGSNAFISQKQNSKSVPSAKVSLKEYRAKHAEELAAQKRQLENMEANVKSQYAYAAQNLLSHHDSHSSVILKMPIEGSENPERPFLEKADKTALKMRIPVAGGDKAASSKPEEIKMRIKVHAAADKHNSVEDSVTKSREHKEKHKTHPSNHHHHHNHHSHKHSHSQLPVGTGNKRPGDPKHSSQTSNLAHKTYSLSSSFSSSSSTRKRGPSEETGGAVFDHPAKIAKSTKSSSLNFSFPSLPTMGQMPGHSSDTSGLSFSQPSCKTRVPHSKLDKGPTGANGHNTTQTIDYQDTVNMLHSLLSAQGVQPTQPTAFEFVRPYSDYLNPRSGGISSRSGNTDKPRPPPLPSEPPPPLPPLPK
T1 sequence (P50750 whole entry partner): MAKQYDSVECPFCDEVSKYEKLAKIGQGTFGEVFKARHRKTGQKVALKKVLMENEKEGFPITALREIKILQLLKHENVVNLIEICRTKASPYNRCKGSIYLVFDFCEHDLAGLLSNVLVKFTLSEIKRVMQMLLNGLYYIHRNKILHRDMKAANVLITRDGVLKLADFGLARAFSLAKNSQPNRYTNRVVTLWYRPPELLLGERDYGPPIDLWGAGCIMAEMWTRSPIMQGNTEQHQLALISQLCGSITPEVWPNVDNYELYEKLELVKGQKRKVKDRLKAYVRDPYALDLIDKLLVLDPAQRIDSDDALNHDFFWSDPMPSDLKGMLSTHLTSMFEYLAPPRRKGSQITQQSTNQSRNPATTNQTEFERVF

B1: HT1 (protein)
chain: KKKHRRRPSKKKRHWKPYYKLTWEEKKKFDEKQSLRASRIRAEMFAKGQPVAPYNTTQFLMDDHDQEEPDLVDMEPVDPYLEPWKHPGSQPRTACNNCYCKKCCFHCYACFTRKGLGISYG
modifications: left off: small tags and cut ends
- cellular growth rate versus control cells [1]: no difference
- amounts of CycT1 co-immunoprecipitating with f:Tat (P-TEFb (CycT1); fixed amount of f:Tat, increasing amounts of m:HT1): decreased
- binding to CycT1 by co-immunoprecipitation (P-TEFb (CycT1); transient expression in 293T cells, anti-Myc or anti-Flag Abs): bound to CycT1
- genes differentially expressed upon ectopic expression [2]: 48 genes
- 7SK RNA fold-change ([2]; padj=9.6E−06): 1.1
- early steps of HIV infection (proviral DNA by qPCR) [3]: not affected
- decrease in Luc expression [4]: 3 fold
- binding to endogenous 7SK snRNA (7SK snRNA): bound
- immunoprecipitation of TAR RNA (in words) (HIV TAR RNA; 293T cells, anti-Myc Ab, RT-qPCR): immunoprecipitated TAR
- amounts of TAR RNA co-immunoprecipitated with f:Tat (HIV TAR RNA; fixed amount of f:Tat and TAR, increasing m:HT1, anti-Flag Ab): decreased progressively
- TAR bound, normalized by protein levels of m:HT1 and m:Tat (HIV TAR RNA; normalized to protein in input lysate): at least as much TAR as m:Tat
- p24 concentration in supernatant (HIV-1 NL43; C-HT cells): 5.1
- p24 concentration in supernatant (HIV-1 NL43; MO-HT cells): 12 ng/mL
- p24 concentration in supernatant (HIV-1 NL43; MT-HT cells): 1.3 ng/mL
